The target in assay [1] is T1, human CD93 (human, UniProt Q9NPY3 22-652).
T1 construct: whole, on cells; Endogenous CD93 on AML cell lines
T1 sequence (looked up): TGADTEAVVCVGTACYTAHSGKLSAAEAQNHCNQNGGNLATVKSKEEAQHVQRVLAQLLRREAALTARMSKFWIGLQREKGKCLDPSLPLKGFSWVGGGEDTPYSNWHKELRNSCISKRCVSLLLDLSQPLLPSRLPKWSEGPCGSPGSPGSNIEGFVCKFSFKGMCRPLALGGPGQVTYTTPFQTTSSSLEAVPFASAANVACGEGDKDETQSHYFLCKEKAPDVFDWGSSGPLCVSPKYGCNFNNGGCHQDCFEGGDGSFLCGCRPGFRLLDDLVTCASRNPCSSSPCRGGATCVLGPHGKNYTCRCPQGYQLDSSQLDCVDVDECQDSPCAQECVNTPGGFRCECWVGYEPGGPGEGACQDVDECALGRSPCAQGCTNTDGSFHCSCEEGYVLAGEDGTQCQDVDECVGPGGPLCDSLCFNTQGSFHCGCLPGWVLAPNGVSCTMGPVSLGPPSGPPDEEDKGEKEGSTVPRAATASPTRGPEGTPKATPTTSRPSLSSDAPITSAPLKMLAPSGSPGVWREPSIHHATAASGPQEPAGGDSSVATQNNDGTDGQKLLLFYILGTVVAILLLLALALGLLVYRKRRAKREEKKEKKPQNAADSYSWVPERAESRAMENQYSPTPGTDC
In words: hybridoma supernatant screen by ELISA and flow cytometry.

In assay [2] the target is T1, human CD93. In words: flow cytometry on AML cell lines, biotinylated antibody and streptavidin APC. Here is the method: FIG. 8. CD93-specific CAR T cells produce cytokines when incubated with CD93 positive AML cell lines. A. AML cell lines were first treated with Fc block, then were stained with biotinylated HuF11 antibody followed by streptavidin APC, or with streptavidin APC only as a control. CD93 was highly expressed on many AML cell lines including THP-1, Kasumi, MOLM-13, NOMO-1, and OCI-AML3, and was not expressed on HEL-2. B. 1×10⁵ AML cells were incubated with 1×10⁵ mock, F11 28ζ LH, F11 28ζ H-L, F11 BBζ L-H, or F11 BBζ H-L CAR T cells for 24 h. At 24 h, supernatant was harvested and ELISA was performed for IFNγ and IL-2. Results are representative of at least three independent experiments.
On the technique in general: Flow cytometry measures light scatter and fluorescence of single cells or particles in a stream.

Experimental findings from US20220133794A1 (Stanford University, published 2022) are described below.

Numbering of substitutions follows the chain as printed.

B1: mouse monoclonal anti-human CD93 antibody F11 (hybridoma clone F11) (antibody, V domains shown)
VH: EVQLQQSGPELVKPGASVKIPCKASGYTFTDYHMDWVKQSHGKSLEWIGDIDPYNGDTVFNQKFKGKATLTVDKSSSTAYMELRSLTSEDTAVYYCTRGGDYWGQGTTLTVSS
VL: DVVMTQTPLSLPVSLGDQASISCRSSQTLVHSNGNTYLHWYLQKPGQSPKLLIYKVSNRFSGVPDRFSGSGSGTDFTLKISRVEAEDLGVYFCSQSTHVPFTFGSGTKLEIK
notes: Mouse hybridoma antibody tested as supernatant; also called mouse F11; parental antibody
Consider B1, for which the binding result in assay [1] was “binds”.

B2: humanized F11-G1 (Hu F11-G1) (antibody, V domains shown)
VH: QVQLVQSGAEVKKPGASVKVSCKASGYTFTDYHMDWVKQAPGQGLEWIGDIDPYNGDTVFNQKFKGKATMTRDTSISTAYMELSRLRSDDTAVYYCTRGGDYWGQGTLVTVSS
VL: B1 VL with V2I, P12S, S14T, L15P, D17Q, Q18P, S48P, K50Q, L88V, S105Q
notes: The light chain was detected with anti-human kappa; also called humanized mCD93 antibody (F11); humanized anti-CD93 antibody
Consider B2, for which the binding result in assay [2] is “binds”.
